We go through one protein from publication PMC8262886, “The Breadth and Molecular Basis of Hcp-Driven Type VI Secretion System Effector Delivery” (mBio, 2021).

The data set deals with the molecule itself. The data set is described as follows: negative-stain electron microscopy; purified Hcp1-His diluted to 0.01 mg/ml, 2% uranyl acetate, 2D class averages with top and side views.

B1: Hcp1-His (natural protein)
chain: MAVDMFIKIGDVKGESKDKTHAEEIDVLAWSWGMSQSGSMHMGGGGGAGKVNVQDLSFTKYIDKSTPNLMMACSSGKHYPQAKLTIRKAGGENQVEYLIITLKEVLVSSVSTGGSGGEDRLTENVTLNFAQVQVDYQPQKADGAKDGGPVKYGWNIRQNVQA
notes: Hcp1 of Pseudomonas aeruginosa, the Hcp of the H1-T6SS; also called His-tagged version of Hcp1; source: E. coli BL21(λDE3), from pACYCDuet-1; coexpressed with an effector, in lysate, copurified (Ni-NTA, SEC); also purified alone (Ni-NTA, SEC); not shown: His, C-terminal, kept
In the case of B1, the binding result is listed as “binds”.
